T1: Human Siglec-5 (human, UniProt O15389 17-551)
T1 construct: CHO HuSiglec-5 cell line; also called HuSiglec-5
T1 sequence: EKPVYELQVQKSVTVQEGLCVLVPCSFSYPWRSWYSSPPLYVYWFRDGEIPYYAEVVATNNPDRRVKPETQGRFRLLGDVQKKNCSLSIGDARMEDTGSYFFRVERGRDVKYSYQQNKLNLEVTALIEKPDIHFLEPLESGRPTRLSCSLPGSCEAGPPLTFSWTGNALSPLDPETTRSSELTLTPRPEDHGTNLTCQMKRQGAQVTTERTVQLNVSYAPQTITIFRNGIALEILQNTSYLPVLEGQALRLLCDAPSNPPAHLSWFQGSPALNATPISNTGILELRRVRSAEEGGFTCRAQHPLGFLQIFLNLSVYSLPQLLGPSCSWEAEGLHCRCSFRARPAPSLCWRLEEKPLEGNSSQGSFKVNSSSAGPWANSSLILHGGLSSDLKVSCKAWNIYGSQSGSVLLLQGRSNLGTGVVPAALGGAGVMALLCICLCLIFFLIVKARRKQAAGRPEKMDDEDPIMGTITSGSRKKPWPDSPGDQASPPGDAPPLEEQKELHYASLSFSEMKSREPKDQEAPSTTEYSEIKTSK

T2: Human Siglec-10 (human, UniProt Q96LC7 17-697)
T2 construct: CHO HuSiglec-10 cell line; also called HuSiglec-10
T2 sequence: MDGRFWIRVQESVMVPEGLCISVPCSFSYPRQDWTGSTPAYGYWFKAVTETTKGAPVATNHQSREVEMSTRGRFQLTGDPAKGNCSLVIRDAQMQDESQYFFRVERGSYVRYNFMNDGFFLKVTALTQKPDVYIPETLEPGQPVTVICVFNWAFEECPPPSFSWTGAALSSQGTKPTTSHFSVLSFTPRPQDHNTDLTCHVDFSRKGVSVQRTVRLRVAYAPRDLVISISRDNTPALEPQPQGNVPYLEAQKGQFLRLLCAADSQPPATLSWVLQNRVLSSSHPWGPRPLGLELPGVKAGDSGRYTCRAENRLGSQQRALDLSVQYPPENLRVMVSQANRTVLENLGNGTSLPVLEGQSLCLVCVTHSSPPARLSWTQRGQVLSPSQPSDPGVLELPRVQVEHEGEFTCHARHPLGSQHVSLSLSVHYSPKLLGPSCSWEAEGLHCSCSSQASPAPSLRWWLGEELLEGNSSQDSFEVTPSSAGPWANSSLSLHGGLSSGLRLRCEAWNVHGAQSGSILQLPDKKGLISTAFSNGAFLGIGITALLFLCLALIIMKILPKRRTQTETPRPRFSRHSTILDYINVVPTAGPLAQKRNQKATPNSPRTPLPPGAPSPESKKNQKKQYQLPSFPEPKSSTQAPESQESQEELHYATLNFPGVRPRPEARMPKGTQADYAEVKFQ

T3: Human Siglec-11 (human, UniProt Q96RL6 29-698)
T3 construct: CHO HuSiglec-11 cell line; also called HuSiglec-11
T3 sequence: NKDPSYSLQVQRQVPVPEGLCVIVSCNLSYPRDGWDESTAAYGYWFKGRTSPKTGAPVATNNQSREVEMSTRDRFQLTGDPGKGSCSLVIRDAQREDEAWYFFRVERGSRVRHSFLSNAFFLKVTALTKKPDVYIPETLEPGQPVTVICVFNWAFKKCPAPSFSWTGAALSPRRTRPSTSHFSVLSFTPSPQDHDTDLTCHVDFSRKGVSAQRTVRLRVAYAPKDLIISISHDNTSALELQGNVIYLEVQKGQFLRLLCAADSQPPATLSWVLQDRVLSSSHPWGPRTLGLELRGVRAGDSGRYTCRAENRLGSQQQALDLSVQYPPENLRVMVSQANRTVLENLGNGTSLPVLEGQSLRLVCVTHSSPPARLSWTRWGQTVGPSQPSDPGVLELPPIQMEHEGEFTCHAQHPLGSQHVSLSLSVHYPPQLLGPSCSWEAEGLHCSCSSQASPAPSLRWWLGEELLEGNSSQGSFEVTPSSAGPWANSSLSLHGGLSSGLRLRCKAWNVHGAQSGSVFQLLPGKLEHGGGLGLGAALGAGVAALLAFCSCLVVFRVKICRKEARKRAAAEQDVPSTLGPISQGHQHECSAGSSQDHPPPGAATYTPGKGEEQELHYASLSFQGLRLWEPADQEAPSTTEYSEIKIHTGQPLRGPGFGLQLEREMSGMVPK


Experiments:
Human Siglec-3 = biological target: T4, Human Siglec-3 (human, UniProt P20138 18-364); experiment: flow cytometry on CHO HuSiglec-3 cell line
T4 construct: CHO HuSiglec-3 cell line; also called HuSiglec-3; CD33
Method: (§1) Cells expressing Siglec-3, -5, -6, -8, -10, -11 and -12 were generated and a representative subset of the cross-reactive Siglec-7/9 antibodies were tested by flow cytometry for binding to the cells. Amino acid sequences and Genbank references for Siglec polypeptides used are shown below in Table 1.
(§2) Briefly, HuSiglec-expressing CHO cell lines (that expressed one of the Siglecs) were used.

Human Siglec-5 = biological target: T1, Human Siglec-5; experiment: flow cytometry on CHO HuSiglec-5 cell line
Method: as §1, §2

Human Siglec-6 = biological target: T5, Human Siglec-6 (human, UniProt O43699 27-453); experiment: flow cytometry on CHO HuSiglec-6 cell line
T5 construct: CHO HuSiglec-6 cell line; also called HuSiglec-6
Method: as §1, §2

Human Siglec-8 = biological target: T6, Human Siglec-8 (human, UniProt Q9NYZ4 17-499); experiment: flow cytometry on CHO HuSiglec-8 cell line
T6 construct: CHO HuSiglec-8 cell line; also called HuSiglec-8
Method: as §1, §2

Human Siglec-10 = biological target: T2, Human Siglec-10; experiment: flow cytometry on CHO HuSiglec-10 cell line
Method: as §1, §2

Human Siglec-11 = biological target: T3, Human Siglec-11; experiment: flow cytometry on CHO HuSiglec-11 cell line
Method: as §1, §2

Human Siglec-12 = biological target: T7, Human Siglec-12 (human, UniProt Q96PQ1 19-595); experiment: flow cytometry on CHO HuSiglec-12 cell line
T7 construct: CHO HuSiglec-12 cell line; also called HuSiglec-12
Method: as §1, §2

Human Siglec-7 = biological target: T8, Human Siglec-7 (human, UniProt Q9Y286 19-467); experiment: flow cytometry on Siglec-7-expressing cell line
T8 construct: Expressed on CHO cells (huSiglec-7-expressing CHO cell line); also called huSiglec-7; CD328

Human Siglec-9 = biological target: T9, Human Siglec-9 (human, UniProt Q9Y336 18-463); experiment: flow cytometry on Siglec-9-expressing cell line
T9 construct: Expressed on CHO cells (huSiglec-9-expressing CHO cell line); also called huSiglec-9; CD329
T9 sequence (Q9Y336 18-463): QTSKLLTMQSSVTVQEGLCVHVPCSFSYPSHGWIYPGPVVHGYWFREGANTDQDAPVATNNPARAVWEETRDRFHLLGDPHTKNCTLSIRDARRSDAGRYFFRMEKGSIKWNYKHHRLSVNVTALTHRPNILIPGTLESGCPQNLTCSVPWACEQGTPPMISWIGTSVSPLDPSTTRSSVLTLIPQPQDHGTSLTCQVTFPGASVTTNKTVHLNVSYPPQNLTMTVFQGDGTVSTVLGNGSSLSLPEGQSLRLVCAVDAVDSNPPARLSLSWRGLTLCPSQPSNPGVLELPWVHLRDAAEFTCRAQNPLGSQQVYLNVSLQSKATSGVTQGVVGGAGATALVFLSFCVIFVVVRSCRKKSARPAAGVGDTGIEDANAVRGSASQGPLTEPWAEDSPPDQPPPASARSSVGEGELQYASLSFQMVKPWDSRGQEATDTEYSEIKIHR

T6 sequence (Q9NYZ4 17-499): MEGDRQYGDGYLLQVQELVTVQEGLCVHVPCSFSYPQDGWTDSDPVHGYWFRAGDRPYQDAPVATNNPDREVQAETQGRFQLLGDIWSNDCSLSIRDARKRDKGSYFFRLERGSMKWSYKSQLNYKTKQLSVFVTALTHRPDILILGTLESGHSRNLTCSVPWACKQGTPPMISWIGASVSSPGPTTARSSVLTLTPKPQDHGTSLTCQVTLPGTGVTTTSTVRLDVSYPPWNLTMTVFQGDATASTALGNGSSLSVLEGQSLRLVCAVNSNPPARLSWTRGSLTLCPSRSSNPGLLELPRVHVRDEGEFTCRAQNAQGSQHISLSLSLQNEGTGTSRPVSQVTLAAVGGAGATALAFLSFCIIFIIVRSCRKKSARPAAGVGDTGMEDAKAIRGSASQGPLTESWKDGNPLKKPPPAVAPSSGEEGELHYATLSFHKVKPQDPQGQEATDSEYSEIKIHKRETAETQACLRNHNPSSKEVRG
T7 sequence (Q96PQ1 19-595): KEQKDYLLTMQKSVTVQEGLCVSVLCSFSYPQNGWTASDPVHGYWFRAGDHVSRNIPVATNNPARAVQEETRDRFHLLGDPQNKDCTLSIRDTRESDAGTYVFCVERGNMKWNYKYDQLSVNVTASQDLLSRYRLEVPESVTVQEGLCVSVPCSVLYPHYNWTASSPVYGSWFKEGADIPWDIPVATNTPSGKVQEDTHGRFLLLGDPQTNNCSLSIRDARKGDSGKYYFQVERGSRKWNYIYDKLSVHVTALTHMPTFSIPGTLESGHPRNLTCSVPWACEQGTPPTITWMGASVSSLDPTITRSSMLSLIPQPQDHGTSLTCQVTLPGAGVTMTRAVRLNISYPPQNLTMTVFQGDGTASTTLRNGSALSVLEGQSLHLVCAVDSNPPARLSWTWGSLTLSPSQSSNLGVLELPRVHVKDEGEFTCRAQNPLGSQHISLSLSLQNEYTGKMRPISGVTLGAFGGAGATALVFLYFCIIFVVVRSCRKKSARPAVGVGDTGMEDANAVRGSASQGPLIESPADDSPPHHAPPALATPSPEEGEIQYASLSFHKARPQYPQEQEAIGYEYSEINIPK
T5 sequence (O43699 other isoform, or with tags, fused parts or gaps): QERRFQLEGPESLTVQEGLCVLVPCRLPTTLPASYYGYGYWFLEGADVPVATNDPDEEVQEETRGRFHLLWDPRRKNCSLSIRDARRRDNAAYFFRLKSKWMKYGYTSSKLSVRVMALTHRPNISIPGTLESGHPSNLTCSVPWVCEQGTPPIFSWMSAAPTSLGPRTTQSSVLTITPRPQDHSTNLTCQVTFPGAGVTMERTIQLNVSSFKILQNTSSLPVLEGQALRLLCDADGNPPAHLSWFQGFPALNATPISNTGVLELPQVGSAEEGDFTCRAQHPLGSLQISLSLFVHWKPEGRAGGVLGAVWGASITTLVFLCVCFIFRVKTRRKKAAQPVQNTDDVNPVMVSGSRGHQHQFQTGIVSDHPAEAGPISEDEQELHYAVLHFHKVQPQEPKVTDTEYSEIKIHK
T4 sequence (P20138 18-364 R69G): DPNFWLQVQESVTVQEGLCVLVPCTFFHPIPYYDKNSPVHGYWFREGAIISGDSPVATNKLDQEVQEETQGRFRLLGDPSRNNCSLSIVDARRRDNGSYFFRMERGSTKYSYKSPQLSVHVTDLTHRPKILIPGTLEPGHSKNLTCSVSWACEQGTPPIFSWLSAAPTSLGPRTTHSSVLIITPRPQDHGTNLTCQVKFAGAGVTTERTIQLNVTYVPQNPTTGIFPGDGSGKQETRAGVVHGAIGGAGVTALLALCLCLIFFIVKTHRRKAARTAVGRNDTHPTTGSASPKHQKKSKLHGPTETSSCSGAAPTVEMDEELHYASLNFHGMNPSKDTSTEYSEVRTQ
T8 sequence (Q9Y286 19-467): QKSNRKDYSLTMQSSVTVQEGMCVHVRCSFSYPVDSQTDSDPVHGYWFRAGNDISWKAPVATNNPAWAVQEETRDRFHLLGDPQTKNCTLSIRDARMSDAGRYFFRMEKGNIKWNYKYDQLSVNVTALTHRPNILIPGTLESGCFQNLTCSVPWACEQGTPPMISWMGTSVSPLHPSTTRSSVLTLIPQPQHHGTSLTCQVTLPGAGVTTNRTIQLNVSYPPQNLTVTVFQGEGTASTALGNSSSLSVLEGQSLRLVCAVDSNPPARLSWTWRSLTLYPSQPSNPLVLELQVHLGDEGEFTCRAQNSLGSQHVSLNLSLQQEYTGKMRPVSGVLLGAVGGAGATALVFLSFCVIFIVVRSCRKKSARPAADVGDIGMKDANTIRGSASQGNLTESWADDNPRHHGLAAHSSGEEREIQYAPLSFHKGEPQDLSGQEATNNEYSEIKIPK

binding result (Human Siglec-3) | binding result (Human Siglec-5) | binding result (Human Siglec-6) | binding result (Human Siglec-8) | binding result (Human Siglec-10) | binding result (Human Siglec-11) | binding result (Human Siglec-12) | binding result (Human Siglec-7) | binding result (Human Siglec-9) | Binder
no binding | no binding | no binding | no binding | no binding | no binding | no binding | binds | binds | antibody 1H9 (antibody, V domains shown, Mouse-derived; also called mAb 1H9) VH: QVQLQQSGAELVRPGASVKLSCKAMGNTFTDYEMHWVKQTPVHGLEWIGAIHPGSGGTVYNQKFRGKAALTADKSSSTAYMELSSLTSEDSAVYYCTREVSGTVYWGQGTTLTVSS VL: DIVMTQAAFSNPVTLGTSASISCRSSKSLLHSNGITYLFWYLQKPGQSPQLLIYQMSNLASGVPDRFSSSGSGTDFTLRISRVEAEDVGVYYCAQNLELPWTFGGGTKLEIK
no binding | no binding | no binding | no binding | no binding | no binding | no binding | binds | binds | antibody 3A11 (antibody, V domains shown, Raised in Balb/c mice; hybridoma supernatants were screened with goat anti-mouse detection, and selected antibodies were also made as chimeric human IgG1 (also with N297Q); also called mAb 3A11) VH: EVQLQQSGTVLARPGASVKMSCKASGYSFTSYWMHWVKQRPGQGLEWIGAIYPGNSDTSYNQKFKDKAKLTAVTSASTAYMELSSLTNEDSAVYYCTTYYRYDGGFDYWGQGTTLTVSS VL: DIQMTQSPKSMSMSVGERVTLSCKASETVGTYVSWYQQKPEQSPKLLIFGASNRNTGVPDRFTGSGSATDFTLTISSVQAEDLADYHCGQSYNYPYTFGGGTKLEIK
no binding | no binding | no binding | no binding | no binding | no binding | no binding | binds | binds | antibody 2B4 (antibody, V domains shown, Mouse-derived; also called mAb 2B4) VH: EVQLQQSGTVLARPGASVKMSCKASGYSFTNYWMHWVKQRPGQGLEWIGAIYPGNSDTSYIQKFKGKAKLTAVTSASTAYMELSSLTNEDSAVYYCTTYYRYDGGFDYWGQGTTLTVSS VL: DIVMTQSPKSMSMSVGERVTLSCKASENVDTYVSWYQQKPDQSPKLLLYGASNRNTGVPDRFTGSGSATDFTLTISNVQAEDLADYHCGQSYSQPYTFGGGTKLEIK

Reference: patent publication US20170306014A1 (INNATE PHARMA, published 2017)
